Biological target: T1, staphylocoagulase SC(1-246), unlabeled (UniProt P17855 27-272)
T1 chain: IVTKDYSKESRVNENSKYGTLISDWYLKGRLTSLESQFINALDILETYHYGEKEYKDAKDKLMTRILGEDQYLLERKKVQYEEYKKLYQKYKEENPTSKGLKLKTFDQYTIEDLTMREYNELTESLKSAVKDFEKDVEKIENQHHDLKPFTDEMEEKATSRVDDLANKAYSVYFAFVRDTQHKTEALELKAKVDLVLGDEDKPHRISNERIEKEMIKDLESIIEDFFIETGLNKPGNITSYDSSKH
Experiment: fluorescence competitive titration; competitor

B1: GMA-2105 murine monoclonal antibody (antibody, V domains shown)
VH: EVKLEESGGGLVQPGGSMKLSCAASGFTFSDAWMDWVRQSPEKGLEWVAEIRTKANNHATYYAESVKGRFTISRDDSKSSVYLQMNSLRAEDTGIYYCTNVYYGNNDVKDYWGQGTSVTVSP
VL: DIVMTQSQKFMSTSVGDRVSVTCKASQNVDIYVAWYQQKPGQSPKALIYSASYRFSGVPDRFTGSGSGTDFTLSISNVQSEDLAEYFCQQYNNYPYTFGGGTKLEIKR
- Kd: 710 pM

B2: Chimeric GMA-2105 (antibody, V domains shown)
VH: B1 VH
VL: B1 VL
- Kd: 750 pM
